Assay results published in patent US20260266848A1, “COMPOSITIONS AND METHODS FOR DIAGNOSING AND TREATING DYSTONIA” (Duke University, priority 2023, published 2026).

B1: Canx (protein, UniProt P35564 21-591, looked up)
Calnexin: HDGHDDDAIDIEDDLDDVIEEVEDSKSKSDASTPPSPKVTYKAPVPTGEVYFADSFDRGSLSGWILSKAKKDDTDDEIAKYDGKWEVDEMKETKLPGDKGLVLMSRAKHHAISAKLNKPFLFDTKPLIVQYEVNFQNGIECGGAYVKLLSKTAELSLDQFHDKTPYTIMFGPDKCGEDYKLHFIFRHKNPKTGVYEEKHAKRPDADLKTYFTDKKTHLYTLILNPDNSFEILVDQSVVNSGNLLNDMTPPVNPSREIEDPEDRKPEDWDERPKIADPDAVKPDDWDEDAPSKIPDEEATKPEGWLDDEPEYIPDPDAEKPEDWDEDMDGEWEAPQIANPKCESAPGCGVWQRPMIDNPNYKGKWKPPMIDNPNYQGIWKPRKIPNPDFFEDLEPFKMTPFSAIGLELWSMTSDIFFDNFIISGDRRVVDDWANDGWGLKKAADGAAEPGVVLQMLEAAEERPWLWVVYILTVALPVFLVILFCCSGKKQSNAMEYKKTDAPQPDVKDEEGKEEEKNKRDEEEEEEKLEEKQKSDAEEDGVTGSQDEEDSKPKAEEDEILNRSPRNRKPRRE
B2: Kpna4 (protein, UniProt O35343 2-521, looked up)
Importin subunit alpha-3: ADNEKLDNQRLKNFKNKGRDLETMRRQRNEVVVELRKNKRDEHLLKRRNVPQEDICEDSDIDGDYRVQNTSLEAIVQNASSDNQGIQLSAVQAARKLLSSDRNPPIDDLIKSGILPILVHCLERDDNPSLQFEAAWALTNIASGTSEQTQAVVQSNAVPLFLRLLHSPHQNVCEQAVWALGNIIGDGPQCRDYVISLGVVKPLLSFISPSIPITFLRNVTWVMVNLCRHKDPPPPMETIQEILPALCVLIHHTDVNILVDTVWALSYLTDAGNEQIQMVIDSGIVPHLVPLLSHQEVKVQTAALRAVGNIVTGTDEQTQVVLNCDALSHFPALLTHPKEKINKEAVWFLSNITAGNQQQVQAVIDANLVPMIIHLLDKGDFGTQKEAAWAISNLTISGRKDQVAYLIQQNVIPPFCNLLTVKDAQVVQVVLDGLSNILKMAEDQAETIANLIEECGGLEKIEQLQNHENEDIYKLAYEIIDQFFSSDDIDEDPSLVPESVQGGTFGFNSSTNVPTEGFQF
B3: Dctn2 (protein, UniProt Q99KJ8 2-402, looked up)
Dynactin subunit 2: ADPKYADLPGIARNEPDVYETSDLPEDDQAEFDAEELSSTSVEHIIVNPNAAYDKFKDKRVGTKGLDFSDRIGKTKRTGYESGDYEMLGEGLGVKETPQQKYQRLLHEVQELTTEVEKIKTTVKESATEEKLTPVVLAKQLAALKQQLVASHLEKLLGPDAAINLADPDGALAKRLLLQLEATKSSKGSSGGKATAGAPPDSSLVTYELHSRPEQDKFSQAAKVAELEKRLTELEATVRCDQDAQNPLSAGLQGACLMETVELLQAKVSALDLAVLDQVEARLQSVLGKVNEIAKHKASVEDADTQNKVHQLYETIQRWSPVASTLPELVQRLVTIKQLHEQAMQFGQLLTHLDTTQQMMASSLKDNTALLTQVQTTMRENLATVEGNFASIDARMKRLGK
B4: Psmd8 (protein, UniProt Q9CX56 1-353, looked up)
26S proteasome non-ATPase …: MFIKGRAAKTPRGEPRRSSRGGRKLAVVAPPPVLGSTSRPHFRRESIARRRCRKSGRRLAASRKMAATAATVNGSTTVSSSGPAATSVGILQAAAGMYEQLKDEWNRKNPNLSKCGEELGRLKLVLLELNFLPTTGTKLTKQQLILARDILEIGAQWSILCKDIPSFERYMAQLKCYYFDYKEQLPESAYMHQLLGLNLLFLLSQNRVAEFHTELERLPAKDIQTNVYIKHPVSLEQYLMEGSYNKVFLAKGNIPAESYTFFIDILLDTIRDEIAGCIEKAYEKILFAEATRILFFSTPKKMTDYAKKRGWVLGPNNYYSFASQQQKPEDSTIPSTELAKQVIEYARQLEMIV
B5: Serpinf1 (protein, UniProt P97298 20-417, looked up)
Pigment epithelium-derived …: QNVPSSSEGSPVPDSTGEPVEEEDPFFKVPVNKLAAAVSNFGYDLYRLRSSASPTGNVLLSPLSVATALSALSLGAEHRTESVIHRALYYDLITNPDIHSTYKELLASVTAPEKNLKSASRIVFERKLRVKSSFVAPLEKSYGTRPRILTGNPRVDLQEINNWVQAQMKGKIARSTREMPSALSILLLGVAYFKGQWVTKFDSRKTTLQDFHLDEDRTVRVPMMSDPKAILRYGLDSDLNCKIAQLPLTGSMSIIFFLPLTVTQNLTMIEESLTSEFIHDIDRELKTIQAVLTVPKLKLSFEGELTKSLQDMKLQSLFESPDFSKITGKPVKLTQVEHRAAFEWNEEGAGSSPSPGLQPVRLTFPLDYHLNQPFLFVLRDTDTGALLFIGRILDPSST
B6: Cul5 (protein, UniProt Q9D5V5 1-780, looked up)
Cullin-5: MATSNLLKNKGSLQFEDKWDFMHPIVLKLLRQESVTKQQWFDLFSDVHAVCLWDDKGSSKIHQALKEDILEFIKQAQARVLSHQDDTALLKAYIVEWRKFFTQCDILPKPFCQLEVTLLGKQSSNKKSNMEDSIVRKLMLDTWNESIFSNIKNRLQDSAMKLVHAERLGEAFDSQLVIGVRESYVNLCSNPEDKLQIYRDNFEKAYLDSTERFYRTQAPSYLQQNGVQNYMKYADAKLKEEEKRALRYLETRRECNSVEALMECCVNALVTSFKETILAECQGMIKRNETEKLHLMFSLMDKVPNGIEPMLKDLEEHIISAGLADMVAAAETITTDSEKYVEQLLTLFNRFSKLVKEAFQDDPRFLTARDKAYKAVVNDATIFKLELPLKQKGVGLKTQPESKCPELLANYCDMLLRKTPLSKKLTSEEIEAKLKEVLLVLKYVQNKDVFMRYHKAHLTRRLILDISADSEIEENMVEWLREVGMPADYVNKLARMFQDIKVSEDLNQAFKEMHKNNKLALPADSVNIKILNAGAWSRSSEKVFVSLPTELEDLIPEVEEFYKKNHSGRKLHWHHLMSNGIITFKNEVGQYDLEVTTFQLAVLFAWNQRPREKISFENLKLATELPDAELRRTLWSLVAFPKLKRQVLLYDPQVNSPKDFTEGTLFSVNQDFSLIKNAKVQKRGKINLIGRLQLTTERMREEENEGIVQLRILRTQEAIIQIMKMRKKISNAQLQTELVEILKNMFLPQKKMIKEQMEWLIEHRYIRRDEADINTFIYMA
B7: Lnpep (protein, UniProt Q8C129 1-1025, looked up)
Leucyl-cystinyl aminopeptidase: MESFTNDRLQLPRNMIENSMFEEEPDVVDLAKEPCLHPLEPDEVEYEPRGSRLLVRGLGEHEMDEDEEDYESSAKLLGMSFMNRSSGLRNSAAGYRQSPDGTCSLPSARTLVICVFVIVVAVSVIMVIYLLPRCTFTKEGCHKTNQSAELIQPVATNGKVFPWAQIRLPTAIIPLCYELSLHPNLTSMTFRGSVTISLQALQDTRDIILHSTGHNISRVTFMSAVSSQEKQVEILEYPYHEQIAVVAPEPLLTGHNYTLKIEYSANISNSYYGFYGITYTDKSNEKKYFAATQFEPLAARSAFPCFDEPAFKATFIIKITRNEHHTALSNMPKKSSVPAEEGLIQDEFSESVKMSTYLVAFIVGEMRNLSQDVNGTLVSVYAVPEKIGQVHHALDTTIKLLEFYQTYFEIQYPLKKLDLVAIPDFEAGAMENWGLLTFREETLLYDNATSSVADRKLVTKIIAHELAHQWFGNLVTMQWWNDLWLNEGFATFMEYFSVEKIFKELNSYEDFLDARFKTMRKDSLNSSHPISSSVQSSEQIEEMFDSLSYFKGASLLLMLKSYLSEDVFRHAVILYLHNHSYAAIQSDDLWDSFNEVTDKTLDVKKMMKTWTLQKGFPLVTVQRKGTELLLQQERFFLRMQPESQPSDTSHLWHIPISYVTDGRNYSEYRSVSLLDKKSDVINLTEQVQWVKVNSNMTGYYIVHYAHDDWTALINQLKRNPYVLSDKDRANLINNIFELAGLGKVPLRMAFDLIDYLKNETHTAPITEALFQTNLIYNLLEKLGHMDLSSRLVARVHKLLQNQIQQQTWTDEGTPSMRELRSALLEFACAHSLENCTTMATNLFDSWMASNGTQSLPTDVMVTVFKVGARTEKGWLFLFSMYSSMGSEAEKNKILEALASSEDVHKLYWLMKSSLDGDIIRTQKLSLIIRTVGRHFPGHLLAWDFVKENWNKLVHKFHLGSYTIQSIVAGSTHLFSTKTHLSEVQAFFENQSEATLKLRCVQEALEVIQLNIQWMVRNLKTLSQWL
B8: Idua (protein, UniProt P35475 28-653, looked up)
Alpha-L-iduronidase: APHLVHVDAARALWPLRRFWRSTGFCPPLPHSQADQYVLSWDQQLNLAYVGAVPHRGIKQVRTHWLLELVTTRGSTGRGLSYNFTHLDGYLDLLRENQLLPGFELMGSASGHFTDFEDKQQVFEWKDLVSSLARRYIGRYGLAHVSKWNFETWNEPDHHDFDNVSMTMQGFLNYYDACSEGLRAASPALRLGGPGDSFHTPPRSPLSWGLLRHCHDGTNFFTGEAGVRLDYISLHRKGARSSISILEQEKVVAQQIRQLFPKFADTPIYNDEADPLVGWSLPQPWRADVTYAAMVVKVIAQHQNLLLANTTSAFPYALLSNDNAFLSYHPHPFAQRTLTARFQVNNTRPPHVQLLRKPVLTAMGLLALLDEEQLWAEVSQAGTVLDSNHTVGVLASAHRPQGPADAWRAAVLIYASDDTRAHPNRSVAVTLRLRGVPPGPGLVYVTRYLDNGLCSPDGEWRRLGRPVFPTAEQFRRMRAAEDPVAAAPRPLPAGGRLTLRPALRLPSLLLVHVCARPEKPPGQVTRLRALPLTQGQLVLVWSDEHVGSKCLWTYEIQFSQDGKAYTPVSRKPSTFNLFVFSPDTGAVSGSYRVRALDYWARPGPFSDPVPYLEVPVPRGPPSPGNP

Key:
WT MEF EVs = experiment: Quantitative LC-MS/MS proteomics of EVs from ISRIB-treated WT MEF cultures; format: cell-based, mouse; set-up: key to ISRIB and DYT Parallel Direction / ISRIB and DYT Parallel Direction, Ctdsp1 / ISRIB and DYT Parallel Direction, Pcdh19 / ISRIB and DYT Parallel Direction, Tspan7 / ISRIB and DYT Parallel Direction, Myo1e / ISRIB and DYT Parallel Direction, Plpp3 / ISRIB and DYT Parallel Direction, Sh3bp4 / ISRIB and DYT Parallel Direction, Dnajc7 / ISRIB and DYT Parallel Direction, Drg1 / ISRIB and DYT Parallel Direction, Maea: YES = protein abundance effect similar to DYT/WT; conditions: EV protein abundance; for WT + ISRIB/WT Cohen's d: ISRIB-treated WT vs WT; for ISRIB and DYT Parallel Direction: WT + ISRIB vs WT, direction compared with DYT/WT
DYT-TOR1A MEF EVs = experiment: Quantitative LC-MS/MS proteomics of EVs from drug-treated DYT-TOR1A MEF cultures (ritonavir, salubrinal); format: cell-based, mouse; set-up: key to RTV Corrective Direction / RTV Corrective Direction, Grwd1 / RTV Corrective Direction, Srrm2 / RTV Corrective Direction, Rbm17 / RTV Corrective Direction, Dcaf8 / RTV Corrective Direction, Edil3 / RTV Corrective Direction, Timp3 / RTV Corrective Direction, Heatr3 / RTV Corrective Direction, Brd4 / RTV Corrective Direction, P3h4 / RTV Corrective Direction, Pacsin3 / RTV Corrective Direction, Naa50 / RTV Corrective Direction, Lpar6 / RTV Corrective Direction, Ndrg1 / RTV Corrective Direction, Kntc1 / RTV Corrective Direction, Cdk11b / RTV Corrective Direction, Sumo1 / RTV Corrective Direction, Lsm4 / RTV Corrective Direction, Hmga2 / RTV Corrective Direction, Cstf1 / RTV Corrective Direction, Tes / RTV Corrective Direction, Sbno1 / RTV Corrective Direction, Unc119b / RTV Corrective Direction, Cfdp1 / RTV Corrective Direction, Sec61b: YES = protein abundance effect opposite to DYT/WT; conditions: EV protein abundance; for DYT + RTV/DYT Cohen's d: ritonavir (RTV)-treated DYT vs DYT; for RTV Corrective Direction: DYT + RTV (ritonavir) vs DYT, direction compared with DYT/WT

| Molecule | WT + ISRIB/WT Cohen's d (WT MEF EVs) | DYT + RTV/DYT Cohen's d (DYT-TOR1A MEF EVs) | ISRIB and DYT Parallel Direction (WT MEF EVs) | RTV Corrective Direction (DYT-TOR1A MEF EVs) |
| --- | --- | --- | --- | --- |
| B1 | 0.64 | −0.16 | – | – |
| B2 | −3.18 | 2.38 | YES | YES |
| B3 | −0.53 | 5.51 | YES | YES |
| B4 | −3.31 | 23.45 | YES | YES |
| B5 | −1.83 | 1.47 | – | – |
| B6 | −3.39 | 13.04 | YES | YES |
| B7 | −1.24 | −0.39 | YES | – |
| B8 | 0.52 | −0.08 | – | – |
